Laboratory results from patent US20200231652A1.

What was measured:
[1] = target: TGF-β2 (UniProt P61812); test: cell-based or functional assay
[2] = target: TGF-β1 (UniProt P01137); test: cell-based or functional assay
[3] = target: TGF-β3 (UniProt P10600); test: cell-based or functional assay
[4] = target: TGF-β1 (UniProt P01137)

Chain of TGF-β2 (P61812 303-414 limits assumed): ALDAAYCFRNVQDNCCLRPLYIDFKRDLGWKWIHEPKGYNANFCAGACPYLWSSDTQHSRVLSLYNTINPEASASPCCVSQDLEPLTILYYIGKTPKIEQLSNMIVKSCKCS
Chain of TGF-β1 (P01137 279-390 limits assumed): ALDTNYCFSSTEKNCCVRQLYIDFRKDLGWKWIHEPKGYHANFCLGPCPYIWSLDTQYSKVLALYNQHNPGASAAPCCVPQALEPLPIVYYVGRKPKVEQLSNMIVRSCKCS
Chain of TGF-β3 (P10600 301-412 limits assumed): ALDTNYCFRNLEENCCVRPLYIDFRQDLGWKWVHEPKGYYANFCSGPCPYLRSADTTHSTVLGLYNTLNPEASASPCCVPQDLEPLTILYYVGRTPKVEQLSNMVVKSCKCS

Row | Av IC50, TGF-β neutralization, Mv1Lu cell luciferase reporter assay [1] | Av IC50, TGF-β neutralization, Mv1Lu cell luciferase reporter assay [2] | Av IC50, TGF-β neutralization, Mv1Lu cell luciferase reporter assay [3] | IC50, A549 cell IL-11 release assay [2] | Fold Change Fc-T2m, A549 cell IL-11 release assay [table] [4] | Fold Change T22d35, A549 cell IL-11 release assay [table] [4] | IC50, A549 cell IL-11 release assay [table] [4] | Binder
1 | 433000 pM | 0.017 pM | 0.015 pM | – | – | – | – | FC5-Fc-T2m (Fc fusion) EVQLQASGGGLVQAGGSLRLSCAASGFKITHYTMGWFRQAPGKEREFVSRITWGGDNTFYSNSVKGRFTISRDNAKNTVYLQMNSLKPEDTADYYCAAGSTSTATPLRVDYWGKGTQVTVSSASEPRGPTIKPCPPCKCPAPNLLGGPSVFIFPPKIKDVLMISLSPIVTCVVVDVSEDDPDVQISWFVNNVEVHTAQTQTHREDYNSTLRVVSALPIQHQDWMSGKEFKCKVNNKDLPAPIERTISKPKGSVRAPQVYVLPPPEEEMTKKQVTLTCMVTDFMPEDIYVEWTNNGKTELNYKNTEPVLDSDGSYFMYSKLRVEKKNWVERNSYSCSVVHEGLHNHHTTKSFSRTPGTGIPPHVQKSVNNDMIVTDNNGAVKFPQLCKFCDVRFSTCDNQKSCMSNCSITSICEKPQEVCVAVWRKNDENITLETVCHDPKLPYHDFILEDAASPKCIMKEKKKPGETFFMCSCSSDECNDNIIFSEEYNTSNPD
2 | 108000 pM | 1.45 pM | 0.026 pM | 5 pM | 9 fold | 94 fold | 6.17 pM | hIgG2Fc-CCCC-T22d35 fusion (Fc fusion) ERKCCVECPPCPAPPVAGPSVFLFPPKPKDTLMISRTPEVTCVVVDVSHEDPEVQFNWYVDGVEVHNAKTKPREEQFNSTFRVVSVLTVVHQDWLNGKEYKCKVSNKGLPAPIEKTISKTKGQPREPQVYTLPPSREEMTKNQVSLTCLVKGFYPSDISVEWESNGQPENNYKTTPPMLDSDGSFFLYSKLTVDKSRWQQGNVFSCSVMHEALHNHYTQKSLSLSPGKIPPHVQKSVNNDMIVTDNNGAVKFPQLCKFCDVRFSTCDNQKSCMSNCSITSICEKPQEVCVAVWRKNDENITLETVCHDPKLPYHDFILEDAASPKCIMKEKKKPGETFFMCSCSSDECNDNIIFSEEYNTSNPDIPPHVQKSVNNDMIVTDNNGAVKFPQLCKFCDVRFSTCDNQKSCMSNCSITSICEKPQEVCVAVWRKNDENITLETVCHDPKLPYHDFILEDAASPKCIMKEKKKPGETFFMCSCSSDECNDNIIFSEEYNTSNPD
3 | 96200 pM | 0.001 pM | 0.001 pM | 5 pM | 10 fold | 101 fold | 5.73 pM | FC5-Fc-T22d35 (Fc fusion) EVQLQASGGGLVQAGGSLRLSCAASGFKITHYTMGWFRQAPGKEREFVSRITWGGDNTFYSNSVKGRFTISRDNAKNTVYLQMNSLKPEDTADYYCAAGSTSTATPLRVDYWGKGTQVTVSSASEPRGPTIKPCPPCKCPAPNLLGGPSVFIFPPKIKDVLMISLSPIVTCVVVDVSEDDPDVQISWFVNNVEVHTAQTQTHREDYNSTLRVVSALPIQHQDWMSGKEFKCKVNNKDLPAPIERTISKPKGSVRAPQVYVLPPPEEEMTKKQVTLTCMVTDFMPEDIYVEWTNNGKTELNYKNTEPVLDSDGSYFMYSKLRVEKKNWVERNSYSCSVVHEGLHNHHTTKSFSRTPGTGIPPHVQKSVNNDMIVTDNNGAVKFPQLCKFCDVRFSTCDNQKSCMSNCSITSICEKPQEVCVAVWRKNDENITLETVCHDPKLPYHDFILEDAASPKCIMKEKKKPGETFFMCSCSSDECNDNIIFSEEYNTSNPDIPPHVQKSVNNDMIVTDNNGAVKFPQLCKFCDVRFSTCDNQKSCMSNCSITSICEKPQEVCVAVWRKNDENITLETVCHDPKLPYHDFILEDAASPKCIMKEKKKPGETFFMCSCSSDECNDNIIFSEEYNTSNPD
